According to patent publication US20220347324A1 (Bristol-Myers Squibb, published 2022):
Blank lines part the entries; values can stand above or below the binder they belong to.

Legend:
[1] = target: T1, human PD-L1 expressed on cells (hPD-L1-positive L2987 cells, L2987 xenografts, human lung tumor tissue) (human, UniProt Q9NZQ7 19-290); test: in vivo PET in mice with bilateral xenografts, last 10 min of a 2 h scan
T1 construct: whole, on cells; also called hPD-L1(+) L2987; PD-L1 positive cells L2987
Experimental: (§1) A 10-minute transmission image was first acquired using a ⁵⁷Co point source for the purpose of attenuation correction of the final PET images. Following the transmission scan, radiotracer solutions were administered via the previously installed tail vein catheters and a 2 hour emission image was acquired. […] All injections were formulated in 200 μL saline prior to injection. Exact injected doses were calculated by taking direct measurements of the formulated dose and subtracting the radioactivity remaining in the syringe and the tail vein catheter.
(§2) Images were reconstructed using a maximum a posteriori (MAP) algorithm with attenuation correction using the collected transmission images and corrected for radioisotope decay. In the final images, regions of interest (ROIs) were drawn around the tumor boundary using ASIPro software (Siemens Preclinical Solutions). Time-activity curves were calculated for each ROI to yield a quantitative view of radiotracer within the tumor volume over the course of the 2 hour emission image. For final comparison, individual time-activity curves were normalized based on the injected radiotracer dose for each specific animal. Radiotracer uptake was compared across tumors using the final 10 minutes of each time-activity curve (1 hour 50 minutes-2h post-radiotracer injection).

[2] = target: T1, human PD-L1 expressed on cells …; test: in vivo PET in mice, co-injected with 3 mg/kg unlabeled A02 Adnectin as competitor
Experimental: as §1, §2

[3] = target: T1, human PD-L1 expressed on cells …; test: in vivo PET in mice with bilateral xenografts
From the text: Briefly, nude mice were subcutaneously implanted bilaterally with HT-29 and L2987 cells. Once tumors reached approximately 200-300 mm³, animals were selected for imaging. Mice were anesthetized with 2% isoflurane in oxygen and placed onto the imaging bed of a Focus 120 PET imaging system (Siemens Preclinical Solutions). […] A 10-minute transmission image was then collected using a ⁵⁷Co point source for use as attenuation correction. Images were reconstructed using a 3D maximum a posteriori algorithm with attenuation correction using AsiPro software (Siemens Preclinical Solutions).

[4] = target: T1, human PD-L1 expressed on cells …; test: radiotracer cell binding, 1 h on ice, gamma counter
Experimental: After the incubation period, cell samples were centrifuged at 200×g and the supernatant was discarded. Cell pellets were resuspended in 1 mL PBS+0.5% BSA and the wash procedure repeated for a total of 3 washes. Following the final wash, cells were again centrifuged at 200×g and the supernatant was discarded. The radioactivity of the remaining cell pellets was then measured by gamma counter.

[5] = target: T1, human PD-L1 expressed on cells …; test: cell binding to human PD-L1 positive L2987 cells; Adnectin marked (Cys-Capped)

B1: 64Cu-A02-NODAGA (designed binder)
chain: GVSDVPRDLEVVAATPTSLLISWSYDGPIDRYYRITYGETGGNSPVQEFTVPPDQKTATISGLKPGVDYTITVYAVRLEEAHYNREFPISINYRTPC
modifications: C-terminal cysteine linked by maleimide to NODAGA chelating 64Cu
notes: A02 with C-terminal PC; also called NODAGA-64Cu-labeled A02 anti-PD-L1 Adnectin
- radiotracer uptake, hPD-L1(+) L2987 xenografts against hPD-L1(-) HT-29 xenografts [1]: 3.05 fold
- radiotracer uptake, hPD-L1(+) L2987 xenografts against hPD-L1(-) HT-29 xenografts, with cold competitor [2]: 1.04 fold

B2: [18F]-A02-4PEG-DBCO-FPPEGA (designed binder)
chain: B1 chain
modifications: C-terminal cysteine linked to Maleamide-DBCO-FFP(18F)
notes: also called 18F-DBCO-A02 anti-PD-L1 Adnectin; ADX_5322_A02-Mal-DBCO-FFPF18
- maximum radiotracer uptake ratio, hPD-L1(+) L2987 against hPD-L1(-) HT-29 xenografts [3]: 3.53 ratio

Continued, values first:

- fold cell associated radioactivity, hPD-L1-positive L2987 cells against hPD-L1-negative HT-29 cells [4]: 44.6 fold
B3: 64Cu-E01-NODAGA (designed binder)
chain: GVSDVPRDLEVVAATPTSLLISWRAQLSPSFYYRITYGETGGNSPVQEFTVPNDVMTATISGLKPGVDYTITVYAVTTHGVYFYSPISINYRTPC
modifications: C-terminal cysteine linked by maleimide to NODAGA chelating 64Cu
notes: E01 with C-terminal PC (ADX_5417_E01 w/ N leader and modified C-terminus); also called 64Cu-E01 anti-PD-L1 Adnectin

- EC50 [5]: 0.43 nM
B4: ADX_5322_A02 (designed binder)
chain: MGVSDVPRDLEVVAATPTSLLISWSYDGPIDRYYRITYGETGGNSPVQEFTVPPDQKTATISGLKPGVDYTITVYAVRLEEAHYNREFPISINYRTPCHHHHHH
notes: C-terminus NYRTPCH6
